B1: Flag-BNIP3 wild-type (BCL2/adenovirus e1B 19 kDa protein interacting protein 3) [rat] / GFP-LC3 (microtubule-associated protein 1 light chain 3; plasmid pEGFP-C1-LC3B) [not stated] (parent)
chain 1: MSQSGEENLQGSWVELHFSNGNGSSVPASVSIYNGDMEKILLDAQHESGRSSSKSSHCDSPPRSQTPQDTNRAEIDTHSFGEKNSTLSEEDYIERRREVESILKKNSDWIWDWSSRPENVPPKEFLFKHPKRTATLSMRNTSVMKKGGIFSADFLKVFLPSLLLSHLLAIGLGIYIGRRLTTSTSTF
chain 2: not shown

The values that follow come from paper PMC9672126.

In the experiment the parent is B1. The experiment can be described thus: co-IP (anti-Flag immunoprecipitation, western blot, quantified). The settings on record: with GFP-LC3 (microtubule-associated protein 1 light chain 3; plasmid pEGFP-C1-LC3B); HeLa cells, 48 h after transfection; n = 3; means ± SEM; read off a plot. A general note: In western blotting, separated proteins are transferred to a membrane and probed.
For the variant chain 1 S60D, the ratio to parent (Folds of Control) is 0.85.

Take chain 1 S60A: the ratio to parent (Folds of Control) is 0.33.

In the case of chain 1 S60E, the ratio to parent (Folds of Control) is 0.85.

For chain 1 S60A T66A, the ratio to parent (Folds of Control) amounted to 0.13.
